According to US20240400670A1 (JIANGSU HENGRUI PHARMACEUTICALS, published 2024):
Like-named read-outs stand apart in the source and are kept apart here.

T1: human IL-23 (Sino Biological, CT048-H08H) (human, UniProt Q9NPF7 20-189; P29460 23-328)
T1 construct: also called human IL-23 protein; Human IL-23 p19
T1 sequence (looked up) 1: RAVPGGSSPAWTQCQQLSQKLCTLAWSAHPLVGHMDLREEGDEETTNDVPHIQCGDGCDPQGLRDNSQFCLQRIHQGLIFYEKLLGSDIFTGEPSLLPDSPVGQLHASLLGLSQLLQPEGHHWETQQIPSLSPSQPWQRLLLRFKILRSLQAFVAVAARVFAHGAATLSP
T1 sequence (looked up) 2: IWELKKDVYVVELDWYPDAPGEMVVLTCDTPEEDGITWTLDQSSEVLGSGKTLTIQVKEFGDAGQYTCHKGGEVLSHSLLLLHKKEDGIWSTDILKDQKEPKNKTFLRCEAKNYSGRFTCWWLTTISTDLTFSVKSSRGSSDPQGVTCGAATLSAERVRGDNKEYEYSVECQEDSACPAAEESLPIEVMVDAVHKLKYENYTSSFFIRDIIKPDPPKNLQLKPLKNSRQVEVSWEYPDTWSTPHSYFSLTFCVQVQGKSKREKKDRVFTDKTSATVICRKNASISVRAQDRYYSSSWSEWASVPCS

T2: mouse IL-23 (R&D Systems, 1887-ML/CF) (mouse, UniProt Q9EQ14 22-196; P43432 23-335)
T2 construct: also called Mouse IL-23 p19
T2 sequence (looked up) 1: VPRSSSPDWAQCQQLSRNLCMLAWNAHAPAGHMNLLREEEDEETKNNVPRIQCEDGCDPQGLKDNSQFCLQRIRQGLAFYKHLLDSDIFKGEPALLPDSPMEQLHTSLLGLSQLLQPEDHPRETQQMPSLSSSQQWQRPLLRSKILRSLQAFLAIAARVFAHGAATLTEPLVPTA
T2 sequence (looked up) 2: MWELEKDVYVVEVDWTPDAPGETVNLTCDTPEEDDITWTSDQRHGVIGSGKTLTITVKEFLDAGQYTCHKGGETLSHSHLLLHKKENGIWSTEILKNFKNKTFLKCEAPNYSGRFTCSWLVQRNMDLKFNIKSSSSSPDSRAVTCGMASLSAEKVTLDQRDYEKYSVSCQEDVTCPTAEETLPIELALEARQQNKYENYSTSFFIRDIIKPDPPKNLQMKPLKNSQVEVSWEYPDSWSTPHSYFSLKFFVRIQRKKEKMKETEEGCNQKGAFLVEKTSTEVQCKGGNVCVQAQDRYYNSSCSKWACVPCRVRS

T3: IL-23 (R&D Systems, 1290-IL-010) (UniProt Q9NPF7 20-189; P29460 23-328)
T3 sequence (looked up) 1: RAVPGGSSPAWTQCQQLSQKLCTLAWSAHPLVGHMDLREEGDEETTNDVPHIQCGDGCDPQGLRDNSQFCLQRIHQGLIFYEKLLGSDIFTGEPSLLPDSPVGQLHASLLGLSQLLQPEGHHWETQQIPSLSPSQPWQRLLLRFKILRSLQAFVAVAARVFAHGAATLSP
T3 sequence (looked up) 2: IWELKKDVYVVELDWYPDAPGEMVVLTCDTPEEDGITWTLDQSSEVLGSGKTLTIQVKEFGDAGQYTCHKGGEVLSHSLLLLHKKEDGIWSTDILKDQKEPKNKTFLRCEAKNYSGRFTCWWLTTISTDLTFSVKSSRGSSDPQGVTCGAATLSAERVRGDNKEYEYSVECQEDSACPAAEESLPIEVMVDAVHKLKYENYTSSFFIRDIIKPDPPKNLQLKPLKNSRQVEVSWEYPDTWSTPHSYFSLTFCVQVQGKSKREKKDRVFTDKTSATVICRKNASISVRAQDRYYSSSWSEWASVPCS

B1: Ch29 (antibody, human IgG1, kappa, L234A L235A, V domains shown)
VH: QVQLKESGPGLVAPSQSLSITCTVSGFSLTSYAISWVRQPPGKGLEWLGVIWTGGGTNYNSGIKSRLTISKDNSKSQVFLNMNSLQTEDTARYYCVREGDYGSYAGAMDYWGQGTSVTVSS
VL: DIVLTQSPASLAVSLGQRATISCRASESVDYYGISSMHWFQQKPGQPPKLLIYRASNLESGIPARFSGSGSRTDFTLTINRVETDDVATYYCQQANKDPYTFGGGTKLEIKR
notes: chimeric: murine variable regions on hIgG1/hkappa; also called chimeric antibody of mAb29
B2: Hu29-19 (antibody, human IgG1, kappa, L234A L235A, V domains shown)
VH: QVTLKESGPVLVKPTETLTLTCTVSGFSLTNYAISWVRQPPGKGLEWLGVIWTGGGTNYNSGIKSRLTISKDNSKSQVVLTMTNMDPVDTARYYCVREGDYGSYAGAMDYWGQGTTVTVSS
VL: DIVLTQSPDSLAVSLGERATINCRASESVDYYGISSMHWFQQKPGQPPKLLIYRASNLESGIPARFSGSGSRTDFTLTISSLQAEDVAVYYCQQANKDPYTFGGGTKVEIKR
notes: humanized mAb29, IgG1/kappa
B3: Hu29-24 (antibody, human IgG1, kappa, L234A L235A)
heavy: not shown
light: DIVLTQSPDSLAVSLGQRATINCRASESVDYYGISSMHWFQQKPGQPPKLLIYRASNLESGIPARFSGSGSRTDFTLTISSLQAEDVAVYYCQQANKDPYTFGGGTKVEIKRTVAAPSVFIFPPSDEQLKSGTASVVCLLNNFYPREAKVQWKVDNALQSGNSQESVTEQDSKDSTYSLSSTLTLSKADYEKHKVYACEVTHQGLSSPVTKSFNRGEC
notes: humanized mAb29, IgG1/kappa
B4: Ch38 (antibody, human IgG1, kappa, L234A L235A, V domains shown)
VH: EFQLQQSGPELVKPGASVKISCKASGYSFTDHNMNWVKQSNGKSLEWIGVINPNYGTTTYNQKFKGKATLTVDQSSSTAYMQLNILTSEDSAVYYCARRGFAYWGQGTLVTVSA
VL: DIVISQDELSNPVTSGESVSISCRSSKSLLYKDGKTYLNWFLQRPGQSPQLLIYLMSTRASGVSDRFSGSGSGTDLTLEISRVKAEDVGVYYCQQIAEYPFTFGSGTKLEIKR
notes: chimeric: murine variable regions on hIgG1/hkappa; also called chimeric antibody of mAb38
B5: Hu38-4 (antibody, human IgG1, kappa, L234A L235A, V domains shown)
VH: EFQLVQSGAEVKKPGASVKVSCKASGYTFTDHNMNWVRQAPGQRLEWMGVINPNYGTTTYNQKFKGRVTITVDTSASTAYMELSSLRSEDTAVYYCARRGFAYWGQGTLVTVSS
VL: DIVMTQTPLSLPVTPGEPASISCRSSKSLLYKDGKTYLNWFLQKPGQSPQLLIYLMQTRASGVPDRFSGSGSGTDLTLKISRVEAEDVGVYYCQQIAEYPFTFGSGTKLEIKR
notes: humanized mAb38, IgG1/kappa
B6: Hu38-9 (antibody, human IgG1, kappa, L234A L235A, V domains shown)
VH: EFQLVQSGAEVKKPGASVKVSCKASGYSFTDHNMNWVRQAPGQRLEWMGVINPNYGTTTYNQKFKGRVTITVDQSASTAYMELSSLRSEDTAVYYCARRGFAYWGQGTLVTVSS
VL: DIVMTQTPLSLPVTPGEPASISCRSSKSLLYKDGKTYLNWYLQKPGQSPQLLIYLMSTRASGVPDRFSGSGSGTDFTLKISRVEAEDVGVYYCQQIAEYPFTFGSGTKLEIKR
notes: humanized mAb38, IgG1/kappa
B7: Hu38-5 (antibody, human IgG1, kappa, L234A L235A, V domains shown)
VH: EVQLVQSGAEVKKPGASVKVSCKASGYSFTDHNMNWVRQAPGQRLEWMGVINPNYGTTTYNQKFKGRVTITVDTSASTAYMELSSLRSEDTAVYYCARRGFAYWGQGTLVTVSS
VL: DIVMTQTPLSLPVTPGEPASISCRSSKSLLYKDGKTYLNWYLQKPGQSPQLLIYLMSTRASGVPDRFSGSGSGTDFTLKISRVEAEDVGVYYCQQIAEYPFTFGSGTKLEIKR
notes: humanized mAb38, IgG1/kappa
B8: Hu38-13 (antibody, human IgG1, kappa, L234A L235A, V domains shown)
VH: EFQLVQSGAEVKKPGASVKVSCKASGYSFTDHNMNWVRQAPGQSLEWMGVINPNYGTTTYNQKFKGRVTITVDQSASTAYMELSSLRSEDTAVYYCARRGFAYWGQGTLVTVSS
VL: DIVMTQTPLSLPVTPGEPASISCRSSKSLLYKDGKTYLNWYLQKPGQSPQLLIYLMSTRASGVPDRFSGSGSGTDFTLKISRVEAEDVGVYYCQQIAEYPFTFGSGTKLEIKR
notes: humanized mAb38, IgG1/kappa

How the values were obtained:
[1] = molecular target: T1, human IL-23 (Sino Biological, …); test: ELISA, sample coated, IL-23 titrated, anti-His-HRP
Experimental: (§1) The specific procedures are as follows:
The test sample was diluted to 2 μg/mL with a PBS (BasalMedia, B320) buffer at pH 7.4 and added to a 96-well microplate (Coming, 3590) at 100 μL/well. The plate was incubated at 4° C. overnight. After the liquid was discarded, 5 % skim milk (BD, 232100) diluted with PBS was added at 300 μL/well for blocking, and the mixture was incubated at 37° C. for 2 h. After the blocking was completed, the blocking solution was discarded, and the plate was washed 3 times with a PBST buffer (pH 7.4, PBS containing 0.1 % tween-20). […] After the incubation, the plate was washed 3 times with PBST. […] After the plate was washed 3 times with PBST, a TMB chromogenic substrate (KPL, 5120-0077) was added at 100 μL/well, and the mixture was incubated at room temperature for 10⁻¹⁵ min, and then 1 M H₂SO₄ was added at 50 μL/well to terminate the reaction. The absorbance values at 450 nm were taken using a microplate reader. The binding curves of antibodies to antigens were fitted using software, and the EC₅₀ values were calculated.

[2] = molecular target: T1, human IL-23 (Sino Biological, …); test: SPR (Biacore), Protein A capture of sample, 1:1 model
Experimental: (§2) A certain amount of test sample was subjected to affinity capture by a biosensor chip Protein A (GE, 29127556), and then antigens at a series of concentration gradients were allowed to flow on the surface of the chip. The reaction signals were detected in real time by using Biacore (GE, 8 K) to obtain association and dissociation curves. After the dissociation was completed for each cycle, the biochip was washed and regenerated with a 10 mM glycine-hydrochloric acid solution at pH 1.5 (GE, BR-1003-54). Fitting was performed based on the experimental data using BlAevaluation version 4.1 software with a 1:1 model, and affinity values were obtained.

[3] = molecular target: T1, human IL-23 (Sino Biological, …); test: cell-based or functional assay
[4] = molecular target: T1, human IL-23 (Sino Biological, …); test: competition ELISA, blocks IL-23/IL-23R; IL-23R coated, biotin-IL-23 + sample gradient
Experimental: as §1
The receptor protein was diluted to 2 μg/mL with a PBS (BasalMedia, B320) buffer at pH 7.4 and added to a 96-well microplate (Corning, 3590) at 100 μL/well. The plate was incubated at 4° C. overnight. After the liquid was discarded, 1 % Casein blocking solution (Thermo, 37528) was added at 200 μL/well for blocking, and the plate was incubated at 37° C. for 2 h. After the blocking was complete, the blocking solution was discarded, and the plate was washed 3 times with a PBST buffer (pH 7.4 PBS containing 0.1 % tween-20) for later use. After the biotin-labeled ligand protein at a fixed concentration was mixed with an antibody or fusion protein diluted in a gradient, the mixture was pre-incubated at 37° C. for 30 min and then added to the blocked microplate. The plate was incubated at 37° C. for 1.5 h. After the incubation was complete, the plate was washed 3 times with PBST. Streptavidin-HRP (Invitrogen, 434323, diluted at 1:4000) was added at 100 μL/well, and the plate was incubated at 37° C. for 1 h. The supernatant was removed. After the plate was washed 3 times with PBST, TMB chromogenic substrate (KPL, 5120-0077) was added at 100 μL/well, and the plate was incubated at room temperature for 10⁻¹⁵ min. 1 M H₂SO₄ was added at 50 μL/well to terminate the reaction. The absorbance values at 450 nm were taken using a microplate reader. Curves for the inhibition of binding of the ligands to the receptors were fitted using software, and the IC₅₀ values were calculated.

[5] = molecular target: T2, mouse IL-23 (R&D Systems, 1887-ML/CF); test: SPR (Biacore), Protein A capture of sample
[6] = molecular target: cynomolgus monkey IL-23 (Acro Biosystems, ILB-CM52W8) (cynomolgus monkey, UniProt H6WS56 20-189); test: SPR (Biacore), Protein A capture of sample, 1:1 model
Experimental: as §2

[7] = molecular target: T3, IL-23 (R&D Systems, 1290-IL-010); test: cell-based or functional assay
[8] = molecular target: T1, human IL-23 (Sino Biological, …); test: cell-based or functional assay; remark: listed apart in the source

| Binder | EC50 [1] [nM] | Kd [2] [nM] | koff [2] [s⁻¹] | kon [2] [M⁻¹ s⁻¹] | Activity in inhibiting proliferation of BaF3-IL-23R cells (IC50, nM) [3] [nM] | IC50 [4] [nM] | binding result [5] | Kd [6] [nM] | koff [6] [s⁻¹] | kon [6] [M⁻¹ s⁻¹] | IC50 for inhibiting IL-17 secretion [7] [nM] | Activity in inhibiting proliferation of BaF3-IL-23R cells (IC50, nM) [8] [nM] |
| --- | --- | --- | --- | --- | --- | --- | --- | --- | --- | --- | --- | --- |
| B1 | 1.16 | 0.0207 | 8.4e-05 | 4.05e+06 | 0.175 | 0.386 |  |  |  |  |  |  |
| B2 | 1.11 | 0.0151 | 4.08e-05 | 2.71e+06 | 0.194 | 0.478 | no binding | 0.0708 | 0.000192 | 2.71e+06 | 0.0177 |  |
| B3 | 1.22 | 0.0149 |  |  | 0.178 | 0.488 | no binding | 0.0857 |  |  | 0.0289 |  |
| B4 | 1.83 | 0.0901 | 5.65e-05 | 627000 | 0.222 | 0.361 |  |  |  |  |  |  |
| B5 | 1.88 | 0.196 | 6.92e-05 | 353000 |  | 0.427 | no binding | 0.0768 | 3.09e-05 | 402000 |  | 0.122 |
| B6 |  | 0.283 | 6.68e-05 | 236000 |  | 0.496 |  |  |  |  |  | 0.198 |
| B7 |  | 0.277 | 5.82e-05 | 210000 |  | 0.228 |  |  |  |  |  | 0.148 |
| B8 |  | 0.27 | 5.56e-05 | 206000 |  | 0.455 |  |  |  |  |  | 0.187 |
